Data published in publication PMC5641629.

These substances were tested against penicillin binding protein 2a (PBP2a) lacking the N-terminal 40 amino acid membrane-spanning domain (Staphylococcus aureus (MRSA)) (assay: SPR).

Substance	Kd [µM]	koff [s⁻¹]	kon [M⁻¹ s⁻¹]
BLIP-II Y73A (from UniProt O87916 1-311) (natural protein)	1.2	0.00119	961
BLIP-II E268A (from UniProt O87916 1-311) (natural protein)	4.7		424
BLIP-II N51A (from UniProt O87916 1-311) (natural protein)	0.7	0.00086	1270
BLIP-II L91A (from UniProt O87916 1-311) (natural protein)	4	0.00066	168
BLIP-II N50A (from UniProt O87916 1-311) (natural protein)	0.45	0.000719	1540
BLIP-II F209A (from UniProt O87916 1-311) (natural protein)	6	0.00078	137
BLIP-II Y113A (from UniProt O87916 1-311) (natural protein)	4		217
BLIP-II S169A (from UniProt O87916 1-311) (natural protein)	1.4	0.00074	504
BLIP-II N112A (from UniProt O87916 1-311) (natural protein)	1.2	0.0014	1190
BLIP-II W269A (from UniProt O87916 1-311) (natural protein)	3.1	0.00116	375
BLIP-II Y248A (from UniProt O87916 1-311) (natural protein)		0.00086	114
BLIP-II D52A (from UniProt O87916 1-311) (natural protein)	1.8	0.00061	354
BLIP-II T57A (from UniProt O87916 1-311) (natural protein)	0.6	0.00095	1750
BLIP-II I229A (from UniProt O87916 1-311) (natural protein)	3.4	0.00115	339
BLIP-II W152A (from UniProt O87916 1-311) (natural protein)		0.0012	185
